Values quoted from earlier work as cited in PMC12198371 (Nature Communications, 2025).

Target: α-chymotrypsin
Settings: natural inhibitor, Fig. 9d

Ki: 6 nM
B1: BBI G.m.: Bowman–Birk inhibitor (BBI) from soybean Glycine max (71 amino acids) (protein, UniProt P01055 40-110, looked up)
Bowman-Birk type proteinase …: DDESSKPCCDQCACTKSNPPQCRCSDMRLNSCHSACKSCICALSYPAQCFCVDITDFCYEPCKPSEDDKEN
